{
  "source": "patent US20250326865A1",
  "about": "“C-MET PROTEIN-BINDING PEPTIDE COMPLEX” (PeptiDream Inc., priority 2021, published 2025)",
  "molecules": {"B1": {"name": "GFs_c-Met-00014336-PEG13 dimer (peptide SEQ ID NO: 34, GFs_c-Met-00014336p; linker SEQ ID NO: 37) (peptide)", "peptide": "{CH2CO}-[NMeF]TAVS[NMeF]DED[Ahp(2)]PRWS[NMeC]", "chain": "GK[OCOPEG13OCO]KG", "modifications": "thioether I:N-I:15 (inferred); also: homodimer: two cyclic peptides joined by linker G-K-OCOPEG13OCO-K-G, peptide C-terminus on linker"}},
  "key": {"[1]": {"system": "Normal human umbilical vein vascular endothelial cells (HUVECs)", "format": "cell-based", "settings": "HUVEC, cultured for 2 days after addition, FIG. 2; read-out: EC50 (HUVEC cell proliferation)", "procedure": "In order to evaluate the biological activity of the peptide complex of the present invention, the cell proliferation inducing activity was verified. Normal human umbilical vein vascular endothelial cells (HUVECs) were cultured using HuMedia-EG2 (KURABO INDUSTRIES LTD.). After cells were detached using Accutase (Innovative cell technologies), they were resuspended in a Medium without serum or growth factors (Cell system) containing 5% FBS (MBL), seeded into a 96-well plate at 10000 cells per well, and cultured overnight. The next day, a complex (GFs_c-Met-00014336-PEG13 dimer; peptide complex no. 49 in Table 4) of the peptide (SEQ ID NO: 34) synthesized in Example 2 and a linker (SEQ ID NO: 37), or Recombinant Human HGF Protein (R&D systems) as a control was added and cultured for another 2 days. The medium was then removed and the cell count was determined quantitatively using the CellTiter-Glo (registered trademark) Luminescent Cell Viability Assay reagent (Promega) according to the protocol provided. A SpectraMax (registered trademark) Paradigm (registered trademark) multimode microplate reader (Molecular Devices, LLC.) was used for detection. The obtained signal value was analyzed by GraphPad Prism, and EC50 was calculated."}, "[2]": {"system": "Renal proximal tubule epithelial cells (RPTEC)", "experiment": "Evaluation of tube formation in collagen gel", "format": "cell-based", "procedure": "Renal proximal tubule epithelial cells (RPTEC) were cultured in a growth medium (Renal Epithelial Cell Basal Medium (REBM)+0.5% FBS+2.4 mM L-Alanyl-L-Glutamine+10 nM Triiodothyronine+10 ng/mL rh EGF+100 ng/mL Hydrocortisone Hemisuccinate+5 μg/mL rh Insulin+1 μM Epinephrine+5 μg/mL Transferrin) (ATCC). The cells were detached using Trypsin-EDTA, and then resuspended in an assay medium (REBM+0.5% FBS+2.4 mM L-Alanyl-L-Glutamine+10 nM Triiodothyronine+100 ng/mL Hydrocortisone Hemisuccinate+1 μM Epinephrine+5 μg/mL Transferrin+1.8 mM CaCl2).\nRPTECs were resuspended in a mixture of Cellmatrix (registered trademark) Type I-A (Nitta Gelatin Inc.), concentrated culture solution (Nitta Gelatin Inc.) and a reconstitution buffer solution (Nitta Gelatin Inc.) on ice according to the instructions. […]\nTo the assay medium, 2 nM HGF, 1.6 nM EGF or a complex GFs_c-Met-00014336-PEG13 dimer; peptide complex No. 49 in Table 4) of a peptide (SEQ ID NO: 34) synthesized in Example 2 and a linker (SEQ ID NO: 37) at 0.08, 0.4, 2, and 10 nM, was added and 400 μL of each resultant mixture was added to each well of 48-well plate to which the gelated suspension had been added as mentioned above. […] The presence or absence of tube formation was observed and evaluated using a phase-contrast microscope on the third day and the eighth day of the start of the culturing."}, "human c-Met protein [3]": {"biological_target": "T1, human c-Met protein (human, UniProt P08581 25-1390)", "T1 sequence (P08581 25-1390)": "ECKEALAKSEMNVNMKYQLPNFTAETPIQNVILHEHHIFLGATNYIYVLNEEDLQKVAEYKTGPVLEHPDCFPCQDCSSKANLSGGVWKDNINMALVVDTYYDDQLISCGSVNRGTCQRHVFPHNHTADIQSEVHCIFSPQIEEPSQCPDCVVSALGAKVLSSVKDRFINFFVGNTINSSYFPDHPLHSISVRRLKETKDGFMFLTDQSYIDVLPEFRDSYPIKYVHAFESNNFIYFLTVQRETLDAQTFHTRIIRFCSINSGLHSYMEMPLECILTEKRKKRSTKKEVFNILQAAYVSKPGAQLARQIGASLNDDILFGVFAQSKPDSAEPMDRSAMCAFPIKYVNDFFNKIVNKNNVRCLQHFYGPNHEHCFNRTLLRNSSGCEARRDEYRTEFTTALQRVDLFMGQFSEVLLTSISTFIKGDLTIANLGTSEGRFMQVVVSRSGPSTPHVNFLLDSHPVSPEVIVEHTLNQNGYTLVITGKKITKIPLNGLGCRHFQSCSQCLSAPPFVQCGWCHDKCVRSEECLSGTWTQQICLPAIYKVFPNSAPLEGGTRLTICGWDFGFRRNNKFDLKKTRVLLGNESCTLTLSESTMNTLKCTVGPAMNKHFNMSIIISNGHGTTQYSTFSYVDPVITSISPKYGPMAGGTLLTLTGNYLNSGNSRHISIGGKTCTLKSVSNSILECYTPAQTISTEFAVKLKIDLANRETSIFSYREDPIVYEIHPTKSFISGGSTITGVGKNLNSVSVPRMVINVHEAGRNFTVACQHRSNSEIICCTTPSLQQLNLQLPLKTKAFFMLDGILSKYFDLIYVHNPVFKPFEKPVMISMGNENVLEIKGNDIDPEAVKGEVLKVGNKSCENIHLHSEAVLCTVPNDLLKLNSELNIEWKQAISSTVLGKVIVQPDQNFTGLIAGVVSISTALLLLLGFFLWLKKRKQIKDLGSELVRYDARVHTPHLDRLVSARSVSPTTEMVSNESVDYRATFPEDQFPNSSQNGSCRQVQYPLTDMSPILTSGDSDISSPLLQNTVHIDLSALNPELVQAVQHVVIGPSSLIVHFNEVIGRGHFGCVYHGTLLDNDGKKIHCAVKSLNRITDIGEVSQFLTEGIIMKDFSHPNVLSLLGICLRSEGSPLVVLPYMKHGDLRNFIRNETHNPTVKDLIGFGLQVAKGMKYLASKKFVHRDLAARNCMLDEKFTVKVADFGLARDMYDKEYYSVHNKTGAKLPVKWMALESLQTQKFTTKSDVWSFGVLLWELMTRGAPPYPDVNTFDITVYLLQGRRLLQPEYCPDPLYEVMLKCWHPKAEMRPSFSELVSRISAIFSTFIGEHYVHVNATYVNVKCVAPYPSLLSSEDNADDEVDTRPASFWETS", "experiment": "cell-based or functional assay"}, "c-Met": {"biological_target": "T2, c-Met (Homo sapiens, UniProt P08581)", "T2 construct": "endogenous in cells; host or cells: A431 (human)", "T2 sequence (P08581 25-1390)": "as above", "experiment": "Phospho-c-Met AlphaLISA assay (c-Met agonist activity) in A431 cells", "format": "cell-based", "settings": "15 minutes of stimulation; for C-Met Agonist Activity (2 or 1): c-Met phosphorylation (Tyr1234/1235) in A431 cells, maximum signal induced by HGF = 100%", "procedure": "To evaluate the activation potency (c-Met agonist activity) of c-Met of the peptide complex of the present invention, the phosphorylation of c-Met was verified. Human A431 cells were cultured in DMEM high glucose, GlutaMAX (registered trademark) Supplement, pyruvate (Thermo Fisher Scientific), containing 10% FBS (Gibco). After cells were detached using Accutase (Innovative cell technologies), they were seeded into a 96-well plate at 10000 cells per well and cultured overnight. The next day, for starvation, the culture medium was changed to DMEM high glucose, GlutaMAX (registered trademark) Supplement, pyruvate (Thermo Fisher Scientific), containing 0.1% BSA (Sigma-Aldrich), and the cells were cultured overnight. Then, the peptide complex synthesized in Example 3 or Recombinant Human HGF Protein (R&D systems) as a control was added, and after 15 minutes of stimulation, cells were lysed in a Lysis Buffer provided in the AlphaLISA (registered trademark) SureFire (registered trademark) Ultra™ Phospho-c-Met (Tyr1234/1235) kit (PerkinElmer). The assay was performed according to the kit protocol, and a SpectraMax (registered trademark) Paradigm (registered trademark) multimode microplate reader (Molecular Devices, LLC.) was used for signal detection. […] In the same manner, the C50 value was calculated by GraphPad Prism as the concentration of peptide showing 50% activity of the signal induced by HGF. […] Further, for a complex (GFs_c-Met-00014336-PEG13 dimer; complex no. 49 in Table 4) of a peptide (SEQ ID NO: 34) and a linker (SEQ ID NO: 37), a graph of c-Met agonist activity is shown in FIG. 1."}, "human c-Met protein [4]": {"biological_target": "T1, human c-Met protein", "experiment": "cell-based or functional assay", "remark": "listed apart in the source"}, "human c-Met protein [5]": {"biological_target": "T1, human c-Met protein", "experiment": "cell-based or functional assay", "remark": "listed apart in the source"}},
  "note": "Read-outs that look alike come from different tables or passages of the source. Starred links: 1 amine or outer side, 2 acyl side, 3 side chain; linkers in the order of their positions; H or OH if unused. Positions of bridges follow the written chain, without caps; N, C: chain ends. Non-standard residues stand in square brackets, D forms with d. Residues, ends and D or L forms follow the SMILES beside them. Primed or numbered codes have the meaning given here. Chains are numbered I, II in the order given. No end group written: not given here. CO(CH2)2(OCH2CH2)17CO = O=C(CCOCCOCCOCCOCCOCCOCCOCCOCCOCCOCCOCCOCCOCCOCCOCCOCCOCCC(=O)[*:2])[*:1]; OCOPEG13OCO = 3,6,9,12,15,18,21,24,27,30,33-undecaoxapentatriacontane-1,35-diylbis(bicarbonate); X1 = O=C(OCCOCCOCCOCCOCCOCCOCCOCCOCCOCCOCCOCCOC(=O)[*:2])[*:1]; NMeF = CN[C@@H](Cc1ccccc1)C(=O)O; Ahp(2) = CCCCC[C@H](N)C(=O)O; NMeC = CN[C@@H](CS)C(=O)O; Nle = CCCC[C@H](N)C(=O)O; Ahp′ = not defined here",
  "data": [
    {"molecule": "CCCCC[C@@H]1NC(=O)[C@H](CC(=O)O)NC(=O)[C@H](CCC(=O)O)NC(=O)[C@H](CC(=O)O)NC(=O)[C@H](Cc2ccccc2)N(C)C(=O)[C@H](CO)NC(=O)[C@H](C(C)C)NC(=O)[C@H](C)NC(=O)[C@H]([C@@H](C)O)NC(=O)[C@H](Cc2ccccc2)N(C)C(=O)CSC[C@@H](C(=O)NCC(=O)N[C@@H](CCCCNC(=O)OCCOCCOCCOCCOCCOCCOCCOCCOCCOCCOCCOCCOC(=O)NCCCC[C@H](NC(=O)CNC(=O)[C@@H]2CSCC(=O)N(C)[C@@H](Cc3ccccc3)C(=O)N[C@@H]([C@@H](C)O)C(=O)N[C@@H](C)C(=O)N[C@@H](C(C)C)C(=O)N[C@@H](CO)C(=O)N(C)[C@@H](Cc3ccccc3)C(=O)N[C@@H](CC(=O)O)C(=O)N[C@@H](CCC(=O)O)C(=O)N[C@@H](CC(=O)O)C(=O)N[C@@H](CCCCC)C(=O)N3CCC[C@H]3C(=O)N[C@@H](CCCNC(=N)N)C(=O)N[C@@H](Cc3c[nH]c4ccccc34)C(=O)N[C@@H](CO)C(=O)N2C)C(N)=O)C(N)=O)N(C)C(=O)[C@H](CO)NC(=O)[C@H](Cc2c[nH]c3ccccc23)NC(=O)[C@H](CCCNC(=N)N)NC(=O)[C@@H]2CCCN2C1=O", "note": "[compound 49] (I: {CH2CO}-[NMeF]TAVS[NMeF]DED[Ahp(2)]PRWS[NMeC]GK-NH2 / II: {CH2CO}-[NMeF]TAVS[NMeF]DED[Ahp(2)]PRWS[NMeC]GK-NH2; linker I:17-II:17 via X1 (inferred); thioether I:N-I:15, II:N-II:15 (inferred); C-terminus assumed)", "values": [
      {"measurement": "EC50", "setting": "[1]", "value": 0.55, "unit": "nM"},
      {"measurement": "tube formation", "setting": "[2]; RPTEC in collagen gel, 0.08-10 nM, third and eighth day, phase-contrast microscope", "value": "promoted tube formation"},
      {"measurement": "tube formation with branching", "setting": "[2]; RPTEC, 10 nM complex, eighth day (f of FIG. 4)", "value": "not only tube formation but also branch formation was promoted"}
    ]},
    {"molecule": "Recombinant Human HGF Protein (R&D systems) (from UniProt P14210 32-728) (ligand)", "values": [
      {"measurement": "EC50, HUVEC cell proliferation (CellTiter-Glo)", "setting": "human c-Met protein [3]", "value": 0.37, "unit": "nM"},
      {"measurement": "EC50, phospho-c-Met AlphaLISA, A431 cells", "setting": "human c-Met protein [3]", "value": 0.66, "unit": "nM"}
    ]},
    {"molecule": "7 ({CH2CO}-[NMeF]VYVS[NMeF]DVD[Ahp′]PRWS[NMeC]; thioether N-15 (inferred); not fully specified; reading uncertain; also: conjugated moiety via linker) [Peptide 7]", "values": [
      {"measurement": "C-Met Agonist Activity (2 or 1)", "setting": "c-Met", "value": "2 (those showing more than 50% activation were described as 2)"}
    ]},
    {"molecule": "2 ({CH2CO}-[MeA]VYVS[NMeF]DDD[Ahp′]PRWS[NMeC]; thioether N-15 (inferred); not fully specified; reading uncertain; also: conjugated moiety via linker) [Peptide 2]", "values": [
      {"measurement": "C-Met Agonist Activity (2 or 1)", "setting": "c-Met", "value": "1 (those showing less than 50% activation as 1)"}
    ]},
    {"molecule": "8 ({CH2CO}-[NMeF]VYVS[NMeF]DDD[Nle]PRWS[NMeC]; thioether N-15 (inferred); not fully specified; also: conjugated moiety via linker) [Peptide 8]", "values": [
      {"measurement": "C-Met Agonist Activity (2 or 1)", "setting": "c-Met", "value": "2 (those showing more than 50% activation were described as 2)"}
    ]},
    {"molecule": "CCCCC[C@@H]1NC(=O)[C@H](CC(=O)O)NC(=O)[C@@H]2CCCN2C(=O)[C@H](CC(=O)O)NC(=O)[C@H](Cc2ccccc2)N(C)C(=O)[C@H](CO)NC(=O)[C@H](C(C)C)NC(=O)[C@H](C)NC(=O)[C@H](CCC(=O)O)NC(=O)[C@H](Cc2ccccc2)N(C)C(=O)CSC[C@@H](C(=O)NCC(=O)N[C@@H](CCCCNC(=O)CCOCCOCCOCCOCCOCCOCCOCCOCCOCCOCCOCCOCCOCCOCCOCCOCCOCCC(=O)NCCCC[C@H](NC(=O)CNC(=O)[C@@H]2CSCC(=O)N(C)[C@@H](Cc3ccccc3)C(=O)N[C@@H](CCC(=O)O)C(=O)N[C@@H](C)C(=O)N[C@@H](C(C)C)C(=O)N[C@@H](CO)C(=O)N(C)[C@@H](Cc3ccccc3)C(=O)N[C@@H](CC(=O)O)C(=O)N3CCC[C@H]3C(=O)N[C@@H](CC(=O)O)C(=O)N[C@@H](CCCCC)C(=O)N3CCC[C@H]3C(=O)N[C@@H](CCCNC(=N)N)C(=O)N[C@@H](Cc3c[nH]c4ccccc34)C(=O)N[C@@H](C)C(=O)N2C)C(N)=O)C(N)=O)N(C)C(=O)[C@H](C)NC(=O)[C@H](Cc2c[nH]c3ccccc23)NC(=O)[C@H](CCCNC(=N)N)NC(=O)[C@@H]2CCCN2C1=O", "note": "[Peptide 27] (I: {CH2CO}-[NMeF]EAVS[NMeF]DPD[Ahp(2)]PRWA[NMeC]GK-NH2 / II: {CH2CO}-[NMeF]EAVS[NMeF]DPD[Ahp(2)]PRWA[NMeC]GK-NH2; linker I:17-II:17 via CO(CH2)2(OCH2CH2)17CO (inferred); thioether I:N-I:15, II:N-II:15 (inferred); C-terminus assumed)", "values": [
      {"measurement": "EC50", "setting": "c-Met; concentration of peptide showing 50% activity of the signal induced by HGF, A431 cells, read-out: C-Met Agonist Activity (C50; nM)", "value": 2.37, "unit": "nM"}
    ]},
    {"molecule": "B1", "values": [
      {"measurement": "EC50, HUVEC cell proliferation (CellTiter-Glo)", "setting": "human c-Met protein [4]", "value": 0.55, "unit": "nM"},
      {"measurement": "EC50, phospho-c-Met AlphaLISA, A431 cells (FIG. 1)", "setting": "human c-Met protein [4]", "value": 0.72, "unit": "nM"},
      {"measurement": "C-Met Agonist Activity (C50; nM): phospho-c-Met AlphaLISA, A431 cells", "setting": "human c-Met protein [5]", "value": 0.67, "unit": "nM"}
    ]}
  ]
}
